Experiments:
Experiment in all cases: cell-based or functional assay
[1] = biological target: endogenous wild-type PLB of adult rabbit myocytes (rabbit) (UniProt P61015)
[2] = biological target: endogenous wild-type PLB of cardiac myocytes or SR (species not stated at these places) (Rattus norvegicus (Rat)) (UniProt P61016)
[3] = biological target: endogenous wild-type PLB of rat cardiac myocytes (rat) (UniProt P61016)

Chain of UniProt P61015 (P61015 whole entry): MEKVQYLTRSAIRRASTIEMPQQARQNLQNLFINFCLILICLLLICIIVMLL

Q: What does the source list for PLB double point mutant K3E/R14E?
A: decrease in RT50 against the LacZ control [1]: 25%; increase in +dL/dt against the LacZ control [1]: 115%; increase of fractional shortening against the LacZ control [1]: 74%; decrease in RT50 after plasmid transfection of myocytes [2]: 43%; half-time for decay (RT50) of the indo 1 Ca2+ transient, neonatal myocytes (LacZ: 0.28 seconds) [2]: 0.2 s; half-time for decay (RT50) of the indo 1 Ca2+ transient, percent of LacZ [2]: 73%; lowering of the EC50 of SR Ca2+ uptake, adult rat myocytes [3]: 36%

Reference: EP1728516A1
